Data: article doi:10.1101/2021.12.26.474192 (bioRxiv, 2021)

Key:
[1] = target: W1V1-CoV RBD, residues 307-528 (Bat SARS-like coronavirus WIV1 (printed …, UniProt U5WI05)); assay: ELISA
[2] = target: Yun11-CoV RBD, residues 310-515 (Bat coronavirus Cp/Yunnan2011, UniProt R9QTH3); assay: ELISA
[3] = target: BtkY72-CoV RBD, residues 309-530 (Bat sarbecovirus BtKY72, UniProt A0A3Q8AKM0); assay: ELISA
[4] = target: Rs7327-CoV RBD, residues 319-518 (Bat SARS-like coronavirus Rs7327, UniProt A0A2D1PXC0, strain); assay: ELISA
[5] = target: Rs4092-CoV RBD, residues 314-496 (Bat SARS-like coronavirus Rs4092, UniProt A0A2D1PX37, strain); assay: ELISA
[6] = target: YN2013-CoV RBD, residues 314-496 (BtRs-BetaCoV/YN2013, UniProt A0A0U1WJY8, strain); assay: ELISA
[7] = target: ZC45-CoV RBD, residues 327-509 (Bat SARS-like coronavirus ZC45, UniProt A0A2R3SUW7, strain); assay: ELISA
[8] = target: HKU3-1-CoV RBD, residues 322-505 (Bat coronavirus HKU3, isolate HKU3-1, UniProt Q3LZX1, strain); assay: ELISA
[9] = target: Shaanxi2011-CoV RBD, residues 321-502 (Bat coronavirus Rp/Shaanxi2011, UniProt R9QTA0, strain); assay: ELISA
[10] = target: Rp3-CoV RBD, residues 322-504 (Bat coronavirus Rp3/2004, UniProt Q3I5J5); assay: ELISA
[11] = target: T1, SARS-CoV-2 receptor-binding domain (RBD), S protein residues 319-539 (SARS-CoV-2, GenBank MN985325.1 …, UniProt P0DTC2); assay: ELISA
[12] = target: T2, SARS-CoV RBD, residues 318-510 (SARS-CoV (GenBank AAP13441.1), UniProt P59594); assay: ELISA
[13] = target: T3, BM-4831-CoV RBD, residues 310-530 (Bat coronavirus BM48-31/BGR/2008, strain); assay: ELISA
[14] = target: RaTG13-CoV RBD, residues 319-541 (Bat coronavirus RaTG13, UniProt A0ABF7PLN6, strain); assay: ELISA
[15] = target: SHC014-CoV RBD, residues 307-524 (Bat SARS-like coronavirus RsSHC014, UniProt U5WLK5, strain); assay: ELISA
[16] = target: Rs4081-CoV RBD, residues 310-515 (Bat SARS-like coronavirus Rs4081, UniProt A0A2D1PX44, strain); assay: ELISA
[17] = target: pangolin17-CoV RBD, residues 317-539 (Pangolin coronavirus (pangolin17), strain); assay: ELISA
[18] = target: Rf1-CoV RBD, residues 310-515 (Bat SARS CoV Rf1/2004, UniProt Q0QDZ0, strain); assay: ELISA
[19] = target: SARS-CoV-2 spike receptor-binding domain (RBD) used in the crystallographic study (SARS-CoV-2, UniProt P0DTC2); assay: crystal structure
[20] = target: T1, SARS-CoV-2 receptor-binding domain …; assay: cryo-EM structure
[21] = target: T1, SARS-CoV-2 receptor-binding domain …; assay: SPR
[22] = target: T2, SARS-CoV RBD, residues 318-510; assay: SPR
[23] = target: T3, BM-4831-CoV RBD, residues 310-530; assay: SPR

B1: psNb 2-34 (VHH)
VHH: HVQLVESGGGLVQAGGSLRLSCAASGRTFSRYAAGWFRQAPGKEREFVAVIEWDGDSAYYADPVKGRFTISRDNAKNTVYLQMNRLKPEDTAVYICAVGGNHYSRSKYYNLDEYDDWGQGTQVTVSS
B1: binds [1]; binds [2]; binds [3]. B1: binds [4]; binds [5]; binds [6]. B1: binds [7]; binds [8]; binds [9]. B1: binds [10]; binds [11]; binds [12]. B1: binds [13]; binds [14]; binds [15]. B1: binds [16]; binds [17]; binds [18].

B2: psNb 1-21 (VHH)
VHH: HVQLVESGGGLVQAGGSLRLSCAAPGRTFSTSAMGWFRQAPGKEREFVAAIDWSNTNIHYADTVKGRFTISTDTAKNTVYLQMNNLKPEDTAVYYCAQGGWGLTQPISVDYWGKGTQVTVSS
B2: binds [11]; binds [12]; binds [19].

B3: psNb 1-22 (VHH)
VHH: HVQLVESGGGLVQPGGSLRLSCAASGRSFNSYLMGWFRQAPGKEREFVAWISGSPHDIIRYRDSVKDRFTISRDNAKNTVYLQMNSLKPVDTAVYYCAVGSLRVGSFSPDYWGQGTQVTVSS
B3: binds [11]; binds [12]; binds [13].

B4: psNb 1-25 (VHH)
VHH: HVQLVESGGGLVQAGGSLRLSCATSGRTFSTYRMSWFRQAPGKEREFVATIIWSVGSTHYADSVKGRFTISRDNAKNMVYLQMNSLKPEDTAVYYCAAQRSDSSSWGYEDDYDYWGQGTQVTVSS
B4: binds [20].

B5: psNb 2-31 (VHH)
VHH: QVQLVESGGGLVQAGESLRLSCAASKPTFRNFAAGWFRQTPGKDREFVAVIEYDGDSAYYADSVKGRFTISRDNAKNTVYLQMNRLKPGDTAVYICAIGGNHYDPSKYYTADEYDYWGQGTQVTVSS
Work on B5 yielded a Kd [21] of less than 1 pM, a Kd [22] of 3.96 pM and a Kd [23] of 3600 pM. B5: binds [1]; binds [2]; binds [3]. B5: binds [4]; binds [5]; binds [6]. B5: binds [7]; binds [8]; binds [9]. B5: binds [10]; binds [14]; binds [15]. B5: binds [16]; binds [17]; binds [18].

B6: psNb 2-38 (VHH)
VHH: QVQLVESGGGLVQAGGSLRLSCAAAARFSTSAMGWFRQAPGKEREFVAAISWSNTNTHYADTVKGRFTISADTAKETVDLQMNSLKPEDTAVYYCVQGGWGIRQPIIVDYWGKGTQVTVSS
B6: binds [11]; binds [12]; binds [13].

B7: psNb 2-65 (VHH)
VHH: HVQLVESGGGLVQAGGSLRLSCAASGTISTLNAMGWYRQAPGKQRELLASISNLGTTYHADSVAGRFTISRGSAKNTVNLQMNSLKPDDTAVYYCNTRVLEGGTQIRDYWGQGTQVTVSS
B7: binds [11]; binds [13].

B8: psNb 2-67 (VHH)
VHH: EVQLVESGGGLVQTGGSLRLSCALSGYTFSIFPTAWFRQAPGKEREFVAGIRWNGSTRDYTEYADFVKGRFTISRDNAKNMVYLQMISLKPEDTALYYCAASDGVIDGTNANAYRYWGQGTQVTVSS
B8: binds [20].

B9: psNb 1-23 (VHH)
VHH: QVQLVESGGGLVQAGGSLRLSCAASGRTDSISDMGWFRQAPGKEREFVAVVGWSGGGTDYAHSVKGRFTISRDNAKNTVYLQMNSLKPEDTAVYYCAVGSLRVGSFSVEYWGQGTQVTVSS
B9: binds [11]; binds [12]; binds [13].

B10: psNb 2-45 (VHH)
VHH: QVQLVESGGGLVQAGGSLRLSCTASGYDFSILAIAWYRQAPGKERELVAAISRVGSTDYADSVKGRFTISRDNTKNTVSLQMDSLKPEDTAVYYCNAGIPMTTVLSGLGFWGQGTQVTVSS
Binder B10 has a Kd [21] of 390 pM, a Kd [22] of 304000 pM and a Kd [23] of 44 pM. B10: binds [1]; binds [2]; binds [3]. B10: binds [4]; binds [5]; binds [6]. B10: binds [7]; binds [8]; binds [9]. B10: binds [10]; binds [14]; binds [15]. B10: binds [16]; binds [17]; binds [18].

B11: psNb 2-10 (VHH)
VHH: QVQLVESGGGLVQPGGSLRLSCAASGFTFNRYAMSWVRQAPGKGREWVSGIYSDGSETYYTESVKGRFTISRDNAKNMLYLQMNSLKPEDTALYYCAKDENAHEDYFNSGFDRKYDYWGQGTQVTVSS
B11: binds [20].

B12: psNb 2-62 (VHH)
VHH: QVQLVESGGGLVQAGGSLRLSCAASGRTFSTYAMAWFRQAPGKEREFVAGVARSADTTYYGDSVKGRFTISRDNAKNEVNLQMSSLKPEDTAVYYCAARSVIQYGIVPGNDFHYEYWGQGTQVTVSS
B12: binds [20].
